# According to patent US20080044420A1 (published 2008):
# Target: T1, human IL-13R130Q (human, UniProt P35225 35-146, mildly biotinylated (approximately 1-2 molecules per molecule IL-13R130Q) in ELISA screens and receptor binding assays; not biotinylated when amine-coupled to the Biacore chip ; Mildly biotinylated …)
# T1 construct: also called IL-13 R130Q variant; biotinylated IL-13R130Q
# Assay: method and antigen form not given
# Description: Affinity determination by surface plasmon resonance (BIAcore™). […] F1 chips (Biacore, Sweden) were coated with ˜800 RU IL-13R130Q (250 μg/ml, 10 mM acetate buffer, pH 4.0) and respective amount of HSA (20 μg/ml/10 mM acetate buffer, pH 4.5) to the reference flow cell, using standard EDC-NHS amine coupling chemistry. Due to the instability of the antigen on the chip a freshly prepared chip was used for every measurement. Regeneration was done with 2×5 μl pulses of 10 mM HCl. All kinetic measurements were performed in PBS buffer (136 mM NaCl, 2.7 mM KCl, 10 mM Na₂HPO₄, 1.76 mM KH₂PO₄ pH 7.4) at a flow rate of 20 μl/min using Fab concentration range from 1.5-500 nM. Injection time for each concentration was 1 min. All sensograms were fitted globally using BIA evaluation software 3.1. Abbreviations: EDC 1-Ethyl-3-(3-Dimethlaminopropyl) carbodiimide; NHS N-hydroxysuccinimide; RU Resonance Units
# T1 sequence (P35225 35-146 limits assumed): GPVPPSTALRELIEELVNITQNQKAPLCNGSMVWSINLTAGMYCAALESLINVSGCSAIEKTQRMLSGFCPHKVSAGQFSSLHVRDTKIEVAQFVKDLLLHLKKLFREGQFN
binder,measurement,value
"lead candidate SEQ ID NOS:48-49 (HC AA50 Gly, AA54 Asp, AA56 Ser; LC AA1 Ser, AA2 Tyr) (Fab, V domains shown, also called final lead candidate) VH: QVQLVESGGGLVQPGGSLRLSCAASGFTFNSYWINWVRQAPGKGLEWVSGIAYDSSNTLYADSVKGRFTISRDNSKNTLYLQMNSLRAEDTAVYYCARGLGAFHWDMQPDYWGQGTLVTVSS VL: SYELTQPPSVSVAPGQTARISCSGDNIGGTFVSWYQQKPGQAPVLVIYDDNDRPSGIPERFSGSNSGNTATLTISGTQAEDEADYYCGTWDMVTNNVFGGGTKLTVL",Kd,< 10 µM
